Results as given in US20220332770A1 (UNIVERSITY OF RHODE ISLAND BOARD OF TRUSTEES, published 2022).

How the values were obtained:
[1] = target: murine TLR5 (HEK293 cells co-transfected with murine TLR5 and SEAP reporter gene) (murine) (UniProt Q9JLF7); assay: cell-based or functional assay
[2] = target: murine TLR5 (HEK293 cells co-transfected with murine TLR5 and SEAP reporter gene) (murine, UniProt Q9JLF7 27-859); assay: cell-based or functional assay
Sequence of murine TLR5 (HEK293 cells co-transfected with murine TLR5 and SEAP reporter gene) (Q9JLF7 27-859): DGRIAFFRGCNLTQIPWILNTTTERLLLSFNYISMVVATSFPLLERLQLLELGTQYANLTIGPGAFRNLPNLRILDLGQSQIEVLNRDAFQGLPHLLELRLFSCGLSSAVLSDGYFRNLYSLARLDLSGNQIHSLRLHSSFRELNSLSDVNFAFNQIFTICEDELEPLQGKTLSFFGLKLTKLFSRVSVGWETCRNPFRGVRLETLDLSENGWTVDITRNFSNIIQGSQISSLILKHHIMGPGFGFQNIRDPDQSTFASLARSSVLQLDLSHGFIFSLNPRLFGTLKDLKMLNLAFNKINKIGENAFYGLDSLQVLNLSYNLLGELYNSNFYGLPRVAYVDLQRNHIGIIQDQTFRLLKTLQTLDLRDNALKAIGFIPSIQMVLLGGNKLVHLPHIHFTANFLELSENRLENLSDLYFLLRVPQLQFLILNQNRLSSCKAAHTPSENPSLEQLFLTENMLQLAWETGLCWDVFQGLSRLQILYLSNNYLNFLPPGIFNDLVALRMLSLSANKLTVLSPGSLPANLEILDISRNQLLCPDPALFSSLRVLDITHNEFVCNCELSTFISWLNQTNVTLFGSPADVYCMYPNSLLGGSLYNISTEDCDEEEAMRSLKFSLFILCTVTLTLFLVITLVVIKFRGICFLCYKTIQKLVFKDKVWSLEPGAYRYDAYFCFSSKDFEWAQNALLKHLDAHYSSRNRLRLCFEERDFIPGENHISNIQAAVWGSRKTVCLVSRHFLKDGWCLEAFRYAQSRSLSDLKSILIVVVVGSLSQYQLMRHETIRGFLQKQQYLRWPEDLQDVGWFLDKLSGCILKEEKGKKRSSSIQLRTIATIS

Sequence of murine TLR5 (HEK293 cells co-transfected with murine TLR5 and SEAP reporter gene) (murine) (Q9JLF7 27-859): as above

Molecule	lowest concentration to significantly activate TLR5 (SEAP reporter, OD620nm) [1] [pM]	fold reduction of TLR5 activation ability against FLA-ST [2] [fold]	fold reduction of TLR5 activation ability against FljB [2] [fold]
FLA-ST (ultrapure FliC purified from S. Typhimurium, Invivogen) (from UniProt P06179 2-495) (ligand)	40		
Recombinant FljB (phase 2 flagellin of S. Typhimurium strain LT2) (from UniProt P52616 1-506) (ligand)	8		
FljB-HBc fusion protein, self-assembled into FH VLPs (other) MDIDPYKEFGASVELLSFLPSDFFPSIRDLLDTASALYREALESPEHCSPHHTALRQAILCWGELMNLATWVGSNLEDPAGGGGSGGGGSAQVINTNSLSLLTQNNLNKSQSALGTAIERLSSGLRINSAKDDAAGQAIANRFTANIKGLTQASRNANDGISIAQTTEGALNEINNNLQRVRELAVQSANSTNSQSDLDSIQAEITQRLNEIDRVSGQTQFNGVKVLAQDNTLTIQVGANDGETIDIDLKQINSQTLGLDSLNVQKAYDVKDTAVTTKAYANNGTTLDVSGLDDAAIKAATGGTNGTASVTGGAVKFDADNNKYFVTIGGFTGADAAKNGDYEVNVATDGTVTLAAGATKTTMPAGATTKTEVQELKDTPAVVSADAKNALIAGGVDATDANGAELVKMSYTDKNGKTIEGGYALKAGDKYYAADYDEATGAIKAKTTSYTAADGTTKTAANQLGGVDGKTEVVTIDGKTYNASKAAGHDFKAQPELAEAAAKTTENPLQKIDAALAQVDALRSDLGAVQNRFNSAITNLGNTVNNLSEARSRIEDSDYATEVSNMSRAQILQQAGTSVLAQANQVPQNVLSLLRGGGGSGGGGSSRELVVSYVNVNMGLKIRQLLWFHISCLTFGRETVLEYLVSFGVWIRTPPAYRPPNAPILSTLPETTVVLEHHHHHH		25	> 100
